Patent US20150344570A1 (published 2015)

T1: FcγRIIb extracellular domain with C-terminal His tag (human, UniProt P31994 43-217)
T1 construct: extracellular domain; also called FcgRIIb; 2b; not shown: His tag at the C terminus
T1 sequence (looked up): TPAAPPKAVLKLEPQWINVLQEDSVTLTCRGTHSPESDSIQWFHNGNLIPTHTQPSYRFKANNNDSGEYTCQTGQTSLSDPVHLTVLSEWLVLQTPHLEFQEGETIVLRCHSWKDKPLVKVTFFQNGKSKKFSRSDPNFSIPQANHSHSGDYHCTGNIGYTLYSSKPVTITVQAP


Biological target: T1, FcγRIIb extracellular domain with …
Experiment: SPR, relative binding, HeCon Ab = 100
Protocol: (§1) Analysis of interaction between objective antibody and the FcγR was carried out using Biacore T100 (GE Healthcare). HBS-EP+ (GE Healthcare) was used as the running buffer, and the measurement temperature was set to 25° C. Chips produced by immobilizing the antigen peptide by the amine coupling method to a Series S Sencor Chip CM5 (GE Healthcare), or alternatively, chips produced by allowing preliminarily biotinylated antigen peptides to interact with and immobilize onto a Series S Sensor Chip SA (certified) (GE Healthcare) were used. Antibodies of interest were captured onto an antigen peptide-immobilized chip, and allowed to interact to each FcγR diluted with running buffer. To regenerate and repeatedly use the chip, the antibodies captured on the chip were washed off by reacting 10 mM glycine-HCl, pH 1.5.

He/Con_2b	Binder
199 % of control	GpH7-A5/GpH7-B3 variant K326_07I/GpL16-k0 (antibody, human IgG1, kappa, also called He Ab K326_07I) heavy 1: not shown heavy 2: not shown light: DIVMTQSPLSLPVTPGEPASISCQASESLVHSNRNTYLHWYLQKPGQSPQLLIYKVSNRFSGVPDRFSGSGSGTDFTLKISRVEAEDVGVYYCSQNTHVPPTFGQGTKVEIERTVAAPSVFIFPPSDEQLKSGTASVVCLLNNFYPREAKVQWKVDNALQSGNSQESVTEQDSKDSTYSLSSTLTLSKADYEKHKVYACEVTHQGLSSPVTKSFNRGEC
167 % of control	GpH7-A5/GpH7-B3 variant G236_09D/GpL16-k0 (antibody, human IgG1, kappa, also called He Ab G236_09D) heavy 1: not shown heavy 2: not shown light: DIVMTQSPLSLPVTPGEPASISCQASESLVHSNRNTYLHWYLQKPGQSPQLLIYKVSNRFSGVPDRFSGSGSGTDFTLKISRVEAEDVGVYYCSQNTHVPPTFGQGTKVEIERTVAAPSVFIFPPSDEQLKSGTASVVCLLNNFYPREAKVQWKVDNALQSGNSQESVTEQDSKDSTYSLSSTLTLSKADYEKHKVYACEVTHQGLSSPVTKSFNRGEC
104 % of control	GpH7-A5/GpH7-B3 variant A330_01G/GpL16-k0 (antibody, human IgG1, kappa, also called He Ab A330_01G) heavy 1: not shown heavy 2: not shown light: DIVMTQSPLSLPVTPGEPASISCQASESLVHSNRNTYLHWYLQKPGQSPQLLIYKVSNRFSGVPDRFSGSGSGTDFTLKISRVEAEDVGVYYCSQNTHVPPTFGQGTKVEIERTVAAPSVFIFPPSDEQLKSGTASVVCLLNNFYPREAKVQWKVDNALQSGNSQESVTEQDSKDSTYSLSSTLTLSKADYEKHKVYACEVTHQGLSSPVTKSFNRGEC
140 % of control	GpH7-A5/GpH7-B3 variant A327_10E/GpL16-k0 (antibody, human IgG1, kappa, also called He Ab A327_10E) heavy 1: not shown heavy 2: not shown light: DIVMTQSPLSLPVTPGEPASISCQASESLVHSNRNTYLHWYLQKPGQSPQLLIYKVSNRFSGVPDRFSGSGSGTDFTLKISRVEAEDVGVYYCSQNTHVPPTFGQGTKVEIERTVAAPSVFIFPPSDEQLKSGTASVVCLLNNFYPREAKVQWKVDNALQSGNSQESVTEQDSKDSTYSLSSTLTLSKADYEKHKVYACEVTHQGLSSPVTKSFNRGEC
172 % of control	GpH7-A5/GpH7-B3 variant A327_09D/GpL16-k0 (antibody, human IgG1, kappa, also called He Ab A327_09D) heavy 1: not shown heavy 2: not shown light: DIVMTQSPLSLPVTPGEPASISCQASESLVHSNRNTYLHWYLQKPGQSPQLLIYKVSNRFSGVPDRFSGSGSGTDFTLKISRVEAEDVGVYYCSQNTHVPPTFGQGTKVEIERTVAAPSVFIFPPSDEQLKSGTASVVCLLNNFYPREAKVQWKVDNALQSGNSQESVTEQDSKDSTYSLSSTLTLSKADYEKHKVYACEVTHQGLSSPVTKSFNRGEC

Biological target: T1, FcγRIIb extracellular domain with …
Experiment: SPR, relative binding, HoCon Ab = 100
Protocol: as §1

Binder	Ho/Con_2b
GpH7-B3 variant P238_15Y/GpL16-k0 (antibody, human IgG1, kappa, also called Ho Ab P238_15Y) heavy: not shown light: DIVMTQSPLSLPVTPGEPASISCQASESLVHSNRNTYLHWYLQKPGQSPQLLIYKVSNRFSGVPDRFSGSGSGTDFTLKISRVEAEDVGVYYCSQNTHVPPTFGQGTKVEIERTVAAPSVFIFPPSDEQLKSGTASVVCLLNNFYPREAKVQWKVDNALQSGNSQESVTEQDSKDSTYSLSSTLTLSKADYEKHKVYACEVTHQGLSSPVTKSFNRGEC	114 % of control
GpH7-B3 variant S239_03V/GpL16-k0 (antibody, human IgG1, kappa, also called Ho Ab S239_03V) heavy: not shown light: DIVMTQSPLSLPVTPGEPASISCQASESLVHSNRNTYLHWYLQKPGQSPQLLIYKVSNRFSGVPDRFSGSGSGTDFTLKISRVEAEDVGVYYCSQNTHVPPTFGQGTKVEIERTVAAPSVFIFPPSDEQLKSGTASVVCLLNNFYPREAKVQWKVDNALQSGNSQESVTEQDSKDSTYSLSSTLTLSKADYEKHKVYACEVTHQGLSSPVTKSFNRGEC	108 % of control
GpH7-B3 variant P331_16H/GpL16-k0 (antibody, human IgG1, kappa, also called Ho Ab P331_16H) heavy: not shown light: DIVMTQSPLSLPVTPGEPASISCQASESLVHSNRNTYLHWYLQKPGQSPQLLIYKVSNRFSGVPDRFSGSGSGTDFTLKISRVEAEDVGVYYCSQNTHVPPTFGQGTKVEIERTVAAPSVFIFPPSDEQLKSGTASVVCLLNNFYPREAKVQWKVDNALQSGNSQESVTEQDSKDSTYSLSSTLTLSKADYEKHKVYACEVTHQGLSSPVTKSFNRGEC	100 % of control
GpH7-B3 variant S239_10E/GpL16-k0 (antibody, human IgG1, kappa, also called Ho Ab S239_10E) heavy: not shown light: DIVMTQSPLSLPVTPGEPASISCQASESLVHSNRNTYLHWYLQKPGQSPQLLIYKVSNRFSGVPDRFSGSGSGTDFTLKISRVEAEDVGVYYCSQNTHVPPTFGQGTKVEIERTVAAPSVFIFPPSDEQLKSGTASVVCLLNNFYPREAKVQWKVDNALQSGNSQESVTEQDSKDSTYSLSSTLTLSKADYEKHKVYACEVTHQGLSSPVTKSFNRGEC	175 % of control
GpH7-B3 variant P331_15Y/GpL16-k0 (antibody, human IgG1, kappa, also called Ho Ab P331_15Y) heavy: not shown light: DIVMTQSPLSLPVTPGEPASISCQASESLVHSNRNTYLHWYLQKPGQSPQLLIYKVSNRFSGVPDRFSGSGSGTDFTLKISRVEAEDVGVYYCSQNTHVPPTFGQGTKVEIERTVAAPSVFIFPPSDEQLKSGTASVVCLLNNFYPREAKVQWKVDNALQSGNSQESVTEQDSKDSTYSLSSTLTLSKADYEKHKVYACEVTHQGLSSPVTKSFNRGEC	111 % of control
GpH7-B3 variant S267_06M/GpL16-k0 (antibody, human IgG1, kappa, also called Ho Ab S267_06M) heavy: not shown light: DIVMTQSPLSLPVTPGEPASISCQASESLVHSNRNTYLHWYLQKPGQSPQLLIYKVSNRFSGVPDRFSGSGSGTDFTLKISRVEAEDVGVYYCSQNTHVPPTFGQGTKVEIERTVAAPSVFIFPPSDEQLKSGTASVVCLLNNFYPREAKVQWKVDNALQSGNSQESVTEQDSKDSTYSLSSTLTLSKADYEKHKVYACEVTHQGLSSPVTKSFNRGEC	187 % of control
GpH7-B3 variant P331_20W/GpL16-k0 (antibody, human IgG1, kappa, also called Ho Ab P331_20W) heavy: not shown light: DIVMTQSPLSLPVTPGEPASISCQASESLVHSNRNTYLHWYLQKPGQSPQLLIYKVSNRFSGVPDRFSGSGSGTDFTLKISRVEAEDVGVYYCSQNTHVPPTFGQGTKVEIERTVAAPSVFIFPPSDEQLKSGTASVVCLLNNFYPREAKVQWKVDNALQSGNSQESVTEQDSKDSTYSLSSTLTLSKADYEKHKVYACEVTHQGLSSPVTKSFNRGEC	111 % of control

The remaining lines, values ahead:

Ho/Con_2b	Binder
103 % of control	GpH7-B3 variant S337_16H/GpL16-k0 (antibody, human IgG1, kappa, also called Ho Ab S337_16H) heavy: not shown light: DIVMTQSPLSLPVTPGEPASISCQASESLVHSNRNTYLHWYLQKPGQSPQLLIYKVSNRFSGVPDRFSGSGSGTDFTLKISRVEAEDVGVYYCSQNTHVPPTFGQGTKVEIERTVAAPSVFIFPPSDEQLKSGTASVVCLLNNFYPREAKVQWKVDNALQSGNSQESVTEQDSKDSTYSLSSTLTLSKADYEKHKVYACEVTHQGLSSPVTKSFNRGEC
104 % of control	GpH7-B3 variant T335_07I/GpL16-k0 (antibody, human IgG1, kappa, also called Ho Ab T335_07I) heavy: not shown light: DIVMTQSPLSLPVTPGEPASISCQASESLVHSNRNTYLHWYLQKPGQSPQLLIYKVSNRFSGVPDRFSGSGSGTDFTLKISRVEAEDVGVYYCSQNTHVPPTFGQGTKVEIERTVAAPSVFIFPPSDEQLKSGTASVVCLLNNFYPREAKVQWKVDNALQSGNSQESVTEQDSKDSTYSLSSTLTLSKADYEKHKVYACEVTHQGLSSPVTKSFNRGEC
103 % of control	GpH7-B3 variant Y296_20W/GpL16-k0 (antibody, human IgG1, kappa, also called Ho Ab Y296_20W) heavy: not shown light: DIVMTQSPLSLPVTPGEPASISCQASESLVHSNRNTYLHWYLQKPGQSPQLLIYKVSNRFSGVPDRFSGSGSGTDFTLKISRVEAEDVGVYYCSQNTHVPPTFGQGTKVEIERTVAAPSVFIFPPSDEQLKSGTASVVCLLNNFYPREAKVQWKVDNALQSGNSQESVTEQDSKDSTYSLSSTLTLSKADYEKHKVYACEVTHQGLSSPVTKSFNRGEC
108 % of control	GpH7-B3 variant T335_10E/GpL16-k0 (antibody, human IgG1, kappa, also called Ho Ab T335_10E) heavy: not shown light: DIVMTQSPLSLPVTPGEPASISCQASESLVHSNRNTYLHWYLQKPGQSPQLLIYKVSNRFSGVPDRFSGSGSGTDFTLKISRVEAEDVGVYYCSQNTHVPPTFGQGTKVEIERTVAAPSVFIFPPSDEQLKSGTASVVCLLNNFYPREAKVQWKVDNALQSGNSQESVTEQDSKDSTYSLSSTLTLSKADYEKHKVYACEVTHQGLSSPVTKSFNRGEC
231 % of control	GpH7-B3 variant V266_06M/GpL16-k0 (antibody, human IgG1, kappa, also called Ho Ab V266_06M) heavy: not shown light: DIVMTQSPLSLPVTPGEPASISCQASESLVHSNRNTYLHWYLQKPGQSPQLLIYKVSNRFSGVPDRFSGSGSGTDFTLKISRVEAEDVGVYYCSQNTHVPPTFGQGTKVEIERTVAAPSVFIFPPSDEQLKSGTASVVCLLNNFYPREAKVQWKVDNALQSGNSQESVTEQDSKDSTYSLSSTLTLSKADYEKHKVYACEVTHQGLSSPVTKSFNRGEC
104 % of control	GpH7-B3 variant T335_15Y/GpL16-k0 (antibody, human IgG1, kappa, also called Ho Ab T335_15Y) heavy: not shown light: DIVMTQSPLSLPVTPGEPASISCQASESLVHSNRNTYLHWYLQKPGQSPQLLIYKVSNRFSGVPDRFSGSGSGTDFTLKISRVEAEDVGVYYCSQNTHVPPTFGQGTKVEIERTVAAPSVFIFPPSDEQLKSGTASVVCLLNNFYPREAKVQWKVDNALQSGNSQESVTEQDSKDSTYSLSSTLTLSKADYEKHKVYACEVTHQGLSSPVTKSFNRGEC
104 % of control	GpH7-B3 variant S324_06M/GpL16-k0 (antibody, human IgG1, kappa, also called Ho Ab S324_06M) heavy: not shown light: DIVMTQSPLSLPVTPGEPASISCQASESLVHSNRNTYLHWYLQKPGQSPQLLIYKVSNRFSGVPDRFSGSGSGTDFTLKISRVEAEDVGVYYCSQNTHVPPTFGQGTKVEIERTVAAPSVFIFPPSDEQLKSGTASVVCLLNNFYPREAKVQWKVDNALQSGNSQESVTEQDSKDSTYSLSSTLTLSKADYEKHKVYACEVTHQGLSSPVTKSFNRGEC
185 % of control	GpH7-B3 variant S267_19Q/GpL16-k0 (antibody, human IgG1, kappa, also called Ho Ab S267_19Q) heavy: not shown light: DIVMTQSPLSLPVTPGEPASISCQASESLVHSNRNTYLHWYLQKPGQSPQLLIYKVSNRFSGVPDRFSGSGSGTDFTLKISRVEAEDVGVYYCSQNTHVPPTFGQGTKVEIERTVAAPSVFIFPPSDEQLKSGTASVVCLLNNFYPREAKVQWKVDNALQSGNSQESVTEQDSKDSTYSLSSTLTLSKADYEKHKVYACEVTHQGLSSPVTKSFNRGEC
